In publication PMC7379967 (The Febs Journal, 2018):

Columns and labels:
cdMMP‐3 [1] = target: T1, cdMMP‐3 (Homo sapiens, UniProt P08254); assay: Gelatin‐Sepharose bound serum proMMP‐9 activation by cdMMP‐3, zymography; format: biochemical; details: 5 μl serum, 0-14.2 nM cdMMP‐3, 3 h, 37 °C, CDG patients n = 5, healthy controls n = 7, Fig. 8
cdMMP‐3 [2] = target: T1, cdMMP‐3; assay: Stepwise activation of proMMP‐9 glycoforms by cdMMP‐3, gelatin zymography; format: biochemical; details: with galectin‐3 (1/10), Fig. 9B

T1 sequence (P08254 100-272 limits assumed): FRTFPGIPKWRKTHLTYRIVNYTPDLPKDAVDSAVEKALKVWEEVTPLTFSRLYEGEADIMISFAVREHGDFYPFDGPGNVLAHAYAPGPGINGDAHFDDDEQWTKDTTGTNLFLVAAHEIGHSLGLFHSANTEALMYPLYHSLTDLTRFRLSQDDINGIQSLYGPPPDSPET

Row | Molecule | activation of serum proMMP‐9 by MMP‐3 (cdMMP‐3 [1]) | conversion into active form on overnight incubation with cdMMP‐3 and galectin‐3 (cdMMP‐3 [2])
1 | proMMP‐9 from CDG patients: serum proMMP‐9 of PMM2‐CDG patients, defective N‐glycosylation (protein, UniProt P14780 20-707, looked up, pro-form) pro-form: APRQRQSTLVLFPGDLRTNLTDRQLAEEYLYRYGYTRVAEMRGESKSLGPALLLLQKQLSLPETGELDSATLKAMRTPRCGVPDLGRFQTFEGDLKWHHHNITYWIQNYSEDLPRAVIDDAFARAFALWSAVTPLTFTRVYSRDADIVIQFGVAEHGDGYPFDGKDGLLAHAFPPGPGIQGDAHFDDDELWSLGKGVVVPTRFGNADGAACHFPFIFEGRSYSACTTDGRSDGLPWCSTTANYDTDDRFGFCPSERLYTQDGNADGKPCQFPFIFQGQSYSACTTDGRSDGYRWCATTANYDRDKLFGFCPTRADSTVMGGNSAGELCVFPFTFLGKEYSTCTSEGRGDGRLWCATTSNFDSDKKWGFCPDQGYSLFLVAAHEFGHALGLDHSSVPEALMYPMYRFTEGPPLHKDDVNGIRHLYGPRPEPEPRPPTTTTPQPTAPPTVCPTGPPTVHPSERPTAGPTGPPSAGPTGPPTAGPSTATTVPLSPVDDACNVNIFDAIAEIGNQLYLFKDGKYWRFSEGRGSRPQGPFLIADKWPALPRKLDSVFEERLSKKLFFFSGRQVWVYTGASVLGPRRLDKLGLGADVAQVTGALRSGRGKMLLFSGRRLWRFDVKAQMVDPRSASEVDRMFPGVPLDTHDVFQYREKAYFCQDRFYWRVSSRSELNQVDQVGYVTYDILQCPED | significantly faster activation | –
2 | recombinant proMMP‐9: recombinant full‐length human proMMP‐9 expressed in Sf‐9 insect cells (protein, UniProt P14780 20-707, looked up, pro-form) pro-form: APRQRQSTLVLFPGDLRTNLTDRQLAEEYLYRYGYTRVAEMRGESKSLGPALLLLQKQLSLPETGELDSATLKAMRTPRCGVPDLGRFQTFEGDLKWHHHNITYWIQNYSEDLPRAVIDDAFARAFALWSAVTPLTFTRVYSRDADIVIQFGVAEHGDGYPFDGKDGLLAHAFPPGPGIQGDAHFDDDELWSLGKGVVVPTRFGNADGAACHFPFIFEGRSYSACTTDGRSDGLPWCSTTANYDTDDRFGFCPSERLYTQDGNADGKPCQFPFIFQGQSYSACTTDGRSDGYRWCATTANYDRDKLFGFCPTRADSTVMGGNSAGELCVFPFTFLGKEYSTCTSEGRGDGRLWCATTSNFDSDKKWGFCPDQGYSLFLVAAHEFGHALGLDHSSVPEALMYPMYRFTEGPPLHKDDVNGIRHLYGPRPEPEPRPPTTTTPQPTAPPTVCPTGPPTVHPSERPTAGPTGPPSAGPTGPPTAGPSTATTVPLSPVDDACNVNIFDAIAEIGNQLYLFKDGKYWRFSEGRGSRPQGPFLIADKWPALPRKLDSVFEERLSKKLFFFSGRQVWVYTGASVLGPRRLDKLGLGADVAQVTGALRSGRGKMLLFSGRRLWRFDVKAQMVDPRSASEVDRMFPGVPLDTHDVFQYREKAYFCQDRFYWRVSSRSELNQVDQVGYVTYDILQCPED | – | fully converted into its active form
